According to patent US20240409935A1, “Atg8ylation coordinates stress granule formation and mTOR inactivation in response to lysosomal damage” (priority 2023, published 2024):

Target: T1, GST-tagged NUFIP2 (Homo sapiens (Human)) (UniProt Q7Z417)
T1 sequence: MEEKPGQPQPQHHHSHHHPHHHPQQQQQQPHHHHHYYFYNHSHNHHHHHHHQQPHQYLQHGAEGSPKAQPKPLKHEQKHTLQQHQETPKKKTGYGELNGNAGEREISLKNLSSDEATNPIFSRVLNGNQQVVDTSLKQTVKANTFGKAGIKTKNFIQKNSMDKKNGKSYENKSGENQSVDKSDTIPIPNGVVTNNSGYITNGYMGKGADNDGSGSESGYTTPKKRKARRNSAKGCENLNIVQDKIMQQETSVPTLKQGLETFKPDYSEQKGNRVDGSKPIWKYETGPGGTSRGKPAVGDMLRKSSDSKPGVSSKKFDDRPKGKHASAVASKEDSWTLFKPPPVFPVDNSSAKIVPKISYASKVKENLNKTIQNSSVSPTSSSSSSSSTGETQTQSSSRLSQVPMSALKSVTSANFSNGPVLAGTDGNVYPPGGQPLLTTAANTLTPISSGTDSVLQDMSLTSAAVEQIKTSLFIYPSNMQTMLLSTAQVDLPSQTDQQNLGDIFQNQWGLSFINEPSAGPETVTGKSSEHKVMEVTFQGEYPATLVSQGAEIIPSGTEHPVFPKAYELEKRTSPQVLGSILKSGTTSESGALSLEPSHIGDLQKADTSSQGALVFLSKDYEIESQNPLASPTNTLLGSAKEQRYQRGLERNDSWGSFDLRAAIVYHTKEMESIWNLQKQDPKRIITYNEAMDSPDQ
Assay: GST pulldown of in vitro translated radiolabeled Myc-G3BP1 with GST-NUFIP2

Myc-tagged G3BP1 (in vitro translated and radiolabeled), sequence (Q13283 whole entry): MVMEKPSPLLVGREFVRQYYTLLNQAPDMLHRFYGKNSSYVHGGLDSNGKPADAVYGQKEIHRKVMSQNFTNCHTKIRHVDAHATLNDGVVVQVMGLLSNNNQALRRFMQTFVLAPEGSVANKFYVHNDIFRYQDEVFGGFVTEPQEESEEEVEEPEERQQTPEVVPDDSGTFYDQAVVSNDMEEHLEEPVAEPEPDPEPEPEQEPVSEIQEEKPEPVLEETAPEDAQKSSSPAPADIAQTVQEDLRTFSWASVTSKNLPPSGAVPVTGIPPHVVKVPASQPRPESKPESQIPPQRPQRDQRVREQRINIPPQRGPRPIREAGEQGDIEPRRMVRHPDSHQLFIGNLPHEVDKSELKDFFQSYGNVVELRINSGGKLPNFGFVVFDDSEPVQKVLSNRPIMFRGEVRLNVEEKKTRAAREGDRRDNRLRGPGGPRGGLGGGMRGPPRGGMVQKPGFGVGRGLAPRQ

% binding (percent of the input bound): 60%
Substance: Myc-tagged G3BP1 (in vitro translated and radiolabeled) (from UniProt Q13283 1-466)
